What was measured:
[1] = test system: TssK-TssFGE (TssKFGE wedge complex); assay: Biolayer interferometry (BLI), TssFGE binding to biotinylated TssK; assay type: biochemical, enteroaggregative Escherichia coli (EAEC); details: BLI, 47 μM TssFGE lysate, TssK preincubated with 1 mM peptide, kinetic buffer pH 7.3; mean ± SD of three independent assays
Procedure: Streptavidin-tagged TssK was purified as described above. The TssK trimer was further polished by size exclusion chromatography using a Superose 6 10/300 GL (GE Healthcare) in 50 mM HEPES (pH 7.0), 150 mM NaCl at 0.25 ml/min. For biolayer interferometry (BLI) experiments, we used high-precision Strep (SAX) biosensors from Forté Bio (number 18-5117) on the BLItz machine (Forté Bio). The trimeric ligand TssK was biotinylated using equimolar N-hydroxysuccinimide (NHS)–polyethylene glycol 4 (PEG4)–biotin (Pierce EZ-Link; 21330) in 50 mM HEPES (pH 7.0), NaCl 150 mM for 1 h at room temperature before buffer exchange in CentriPure P2 (Generon; IRL) columns against 50 mM HEPES (pH 7.0), NaCl 150 mM to remove the excess biotin. BL21(DE3) cells were used to express the interacting analytes TssG-TssF-TssE. In addition, cells containing an empty plasmid were used as a control. Cells were broken as described above, and the clarified supernatants after centrifugation for 30 min at 20,000 × g contained the control and TssFGE lysate. Streptavidin biosensors were hydrated for 10 min in HEPES buffer before binding of the biotinylated TssK. Biotinylated TssK was loaded at 1.2 μM onto the SAX biosensors for 120 s, and then the excess TssK was dissociated in HEPES buffer for 120 s. For the remaining kinetic assays, we used kinetic buffer (PBS [pH 7.3] plus 0.02% Tween 20, 0.1% bovine serum albumin [BSA], 0.05% sodium azide) (Forté Bio number 18-5032) with orbital shaking at 2,200 rpm. Kinetic buffer (KB) was used to dilute the lysates and the peptide to decrease nonspecific signals. The unbound Strep sites were blocked with 2 μM control lysate for 120 s and washed with KB for 120 s. The kinetic assays were performed using three steps with different times: baseline, 30 s; association, 120 s; and dissociation, 120 s. All the following assays were performed in triplicate. […] In the first assay, we added 47 μM lysate expressing the analytes TssG, TssF, and TssE to the bound TssK. In the second assay, we added 1 mM wild-type (WT) BCP to the bound TssK before adding 47 μM TssF-TssG-TssE. In the third assay, to validate the specificity of the WT BCP we added 1 mM mutant BCP that lacks the binding residues to the bound TssK before adding 47 μM TssF-TssG-TssE. Last, to redemonstrate the specificity of the BCP-WT, we added 1 mM randomized BCP that contains the binding residues but out of order to the bound TssK before adding 47 μM TssF-TssG-TssE.

[2] = target: TssF-Strep (EAEC) (enteroaggregative Escherichia coli (EAEC) 17-2); assay: pull-down; soluble extracts of E. coli BL21(DE3) producing the TssKFGE wedge complex with TssG wild type or foot variants; TssF-Strep used to pull down TssG by affinity purification; level of copurified TssG quantified
[3] = target: TssK-6×His (EAEC) (enteroaggregative Escherichia coli (EAEC) 17-2); assay: native gel or EMSA; clarified BL21(DE3) lysates on a native 4 to 16% gel, immunoblot with anti-His antibodies
[4] = target: Strep-tagged TssK (EAEC) (enteroaggregative Escherichia coli (EAEC) 17-2); assay: BLI; as a7, but 1 mM wild-type BCP added to the bound TssK before 47 μM TssFGE lysate
[5] = target: Strep-tagged TssK (EAEC) (enteroaggregative Escherichia coli (EAEC) 17-2); assay: BLI; as a7, but 1 mM randomized BCP added to the bound TssK before 47 μM TssFGE lysate
[6] = target: Strep-tagged TssK (EAEC) (enteroaggregative Escherichia coli (EAEC) 17-2); assay: BLI; as a7, but 1 mM mutated BCP added to the bound TssK before 47 μM TssFGE lysate
[7] = target: Strep-tagged TssK (EAEC) (enteroaggregative Escherichia coli (EAEC) 17-2); assay: BLI; biotinylated TssK loaded at 1.2 μM on streptavidin (SAX) biosensors, blocked with control lysate; 47 μM TssFGE lysate in kinetic buffer (PBS pH 7.3, 0.02% Tween 20, 0.1% BSA); no peptide
[8] = target: Strep-tagged TssK (EAEC) (enteroaggregative Escherichia coli (EAEC) 17-2); assay: ITC; 25 μM TssK in the cell, 1 mM peptide in the syringe; 50 mM HEPES pH 7.0, 150 mM NaCl, 25°C; One Set of Sites model

SRPVAG-SRPVAG-SRPVAG (head to tail) [mutated BCP]
maximum binding average response of TssFGE to TssK at 150 s in presence of peptide [1]: 0.169 ± 0.016 nm

Flag-tagged TssG (EAEC) (natural protein)
amount of TssG copurified using TssF-based pulldown [2]: 74.8%

Flag-tagged TssG with the foot 2 domain deleted (natural protein)
amount of TssG copurified using TssF-based pulldown [2]: 1.1%

SVRMPG-SPMRVG-SMVRPG (head to tail) [randomized BCP, randomized control version (SVRMPG-SPMRVG-SMVRPG)]
maximum binding average response of TssFGE to TssK at 150 s in presence of peptide [1]: 0.160 ± 0.028 nm

Flag-tagged TssG with the foot 1 domain deleted (natural protein)
amount of TssG copurified using TssF-based pulldown [2]: 4.6%

TssK-6×His (EAEC) (natural protein)
stoichiometry N [3]: 3

TssF-TssG-TssE (EAEC) (complex)
maximum binding average response at 150 s, TssK preincubated with 1 mM wild-type BCP [4]: 0.121 nm | maximum binding average response at 150 s, TssK preincubated with 1 mM randomized BCP [5]: 0.16 nm | maximum binding average response at 150 s, TssK preincubated with 1 mM mutated BCP [6]: 0.169 nm | maximum binding average response at 150 s association [7]: 0.189 nm

SRPVMGSRPVMGSRPVMG (head-to-tail cyclization) [biomimetic cyclic peptide (BCP)]
Kd [8]: 60 µM

Reference: paper PMC8406304, “Inhibiting Type VI Secretion System Activity with a Biomimetic Peptide Designed To Target the Baseplate Wedge Complex” (mBio, 2021)
